Test results taken from the supplement of paper PMC7877785.
± gives the uncertainty stated by the source.

Assay: self-splicing fitness, log relative to wild type (ln ratio); higher = more splicing; Tetrahymena group I intron in knt gene, E. coli kanamycin selection, DiMSum; sequences stand for … in CUCUCU…GGAGGGAAAAGUUAUCAGGCAUGCACCUGGUAGCUAGUCUUUAAACCAAUAGAUUGCAUCGGUUUAAAAGGCAAGACCGUCAAAUUGCGGGAAAGGGGUCAACAGCCGUUCAGUACCAAGUCUCAGGGGAAACUUUGAGAUGGCCUUGCAAAGGGUAUGGUAAUAAGCUGACGGACAUGGUCCUAACCACGCAGCCAAGUCCUAAGUCAACAGAUCUUCUGUUGAUAUGGAUGCAGUUCACAGACUAAAUGUCGGUCGGGGAAGAUGUAUUCUUCUCAUAAGAUAUAGUCGGACCUCUCCUUAAUGGGAGCUAGCGGAUGAAGUGAUGCAACACUGGAGCCGCUGGGAACUAAUUUGUAUGCGAAAGUAUAUUGAUUAGUUUUGGAGUACUCGUGGUCG
Outline: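 Pooled colonies went to amplicon sequencing on an Illumina HiSeq 2500 after six replicate transformations. The plates were LB agar with 100 μg/mL carbenicillin, 50 μM IPTG and 0.2% rhamnose, with or without 25 μg/mL kanamycin, incubated overnight at 37°C or 30°C. The E. coli BL21(DE3) library had all eight P1ex-region intron nucleotides randomised, the intron placed in the knt kanamycin-resistance gene on pET-22b(+). DiMSum fitness is the error-weighted combination of replicate fold changes, kanamycin against none, normalised to wild type.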

Sequence	self-splicing fitness (ln) (30 °C)	self-splicing fitness (ln) (37 °C)
AAUUAGCAAUAUUACGUUCG	-1.16 ± 0.12	-0.728 ± 0.18
ACAAAGCAAUAUUACGACCG	-0.343 ± 0.1	0.578 ± 0.13
ACAAAGCAAUAUUACGAUAU	-2.1 ± 0.088	-1.15 ± 0.1
ACAAAGCAAUAUUACGCAUC	-3.49 ± 0.21	-1.74 ± 0.2
ACAAAGCAAUAUUACGCCCG	-0.191 ± 0.13	0.177 ± 0.16
ACAAAGCAAUAUUACGCCUG	-0.933 ± 0.07	-0.0625 ± 0.085
ACAAAGCAAUAUUACGGGGC	-3.69 ± 0.23	-3.28 ± 0.27
ACAAAGCAAUAUUACGGUAA	-2.45 ± 0.17	-1.49 ± 0.13
ACAAAGCAAUAUUACGUACG	-1.84 ± 0.068	-0.615 ± 0.087
ACAAAGCAAUAUUACGUAUC	-2.27 ± 0.072	-1.69 ± 0.099
ACAAAGCAAUAUUACGUCAG	-2.7 ± 0.14	-1.47 ± 0.12
ACAAAGCAAUAUUACGUCGA	-1.98 ± 0.092	-1.02 ± 0.094
ACAAAGCAAUAUUACGUGGA	-3.55 ± 0.15	-2.44 ± 0.11
ACAAAGCAAUAUUACGUUCU	-0.539 ± 0.055	-0.567 ± 0.065
ACACAGCAAUAUUACGAAGG	-1.75 ± 0.061	-2.18 ± 0.11
ACACAGCAAUAUUACGACUA	-1.22 ± 0.091	-0.346 ± 0.084
ACACAGCAAUAUUACGAGAC	-3.25 ± 0.14	-2.54 ± 0.17
ACACAGCAAUAUUACGAUAU	-1.63 ± 0.08	-1.62 ± 0.098
ACACAGCAAUAUUACGCACA	-1.16 ± 0.1	-0.111 ± 0.1
ACACAGCAAUAUUACGCGUU	-4.3 ± 0.16	-2.29 ± 0.14
ACACAGCAAUAUUACGCUAG	-1.41 ± 0.075	-1.06 ± 0.092

Sequence	self-splicing fitness (ln) (30 °C)	self-splicing fitness (ln) (37 °C)
ACACAGCAAUAUUACGCUUA	-1.75 ± 0.098	-1.7 ± 0.075
ACACAGCAAUAUUACGGAUG	-1.54 ± 0.058	-0.668 ± 0.084
ACACAGCAAUAUUACGGGCG	-0.978 ± 0.048	-0.369 ± 0.062
ACACAGCAAUAUUACGGUGU	-5.22 ± 0.26	-2.92 ± 0.21
ACACAGCAAUAUUACGGUUA	-1.16 ± 0.059	-0.485 ± 0.061
ACACAGCAAUAUUACGUAAA	-3.49 ± 0.15	-1.2 ± 0.12
ACACAGCAAUAUUACGUGGC	-3.54 ± 0.23	-0.291 ± 0.13
ACACAGCAAUAUUACGUUAU	-3.35 ± 0.11	-2.65 ± 0.12
ACACAGCAAUAUUACGUUCA	-1.96 ± 0.066	-0.442 ± 0.064
ACACAGCAAUAUUACGUUUC	-3.61 ± 0.12	-2.28 ± 0.14
ACACAGCAAUAUUACGUUUU	-3.42 ± 0.11	-2.57 ± 0.14
ACAGAGCAAUAUUACGAACA	-2.01 ± 0.26	-2.67 ± 0.41
ACAGAGCAAUAUUACGACAA		-2.31 ± 0.21
ACAGAGCAAUAUUACGACCU	-2.8 ± 0.19	-0.728 ± 0.16
ACAGAGCAAUAUUACGACGA	-0.906 ± 0.43	-1.83 ± 0.38
ACAGAGCAAUAUUACGAGGC	-3.42 ± 0.38	-2.15 ± 0.25
ACAGAGCAAUAUUACGAGUC	-4.65 ± 0.38	-1.82 ± 0.27
ACAGAGCAAUAUUACGAGUG	-4.35 ± 0.37	-3.43 ± 0.29
ACAGAGCAAUAUUACGAUCC	-3.76 ± 0.39	-1.5 ± 0.34
ACAGAGCAAUAUUACGAUCG	-2.71 ± 0.18	-1.88 ± 0.23
ACAGAGCAAUAUUACGCAGG	-4.02 ± 0.18	-2.59 ± 0.17
